# Reference: patent US20200055939A1 (Genentech, published 2020)
# Residue numbers refer to the chain shown, from its start.
# T1: R274A
# T1 construct: % monomer 94; also called MICA*008.mIgG2a R274A
# T1 chain: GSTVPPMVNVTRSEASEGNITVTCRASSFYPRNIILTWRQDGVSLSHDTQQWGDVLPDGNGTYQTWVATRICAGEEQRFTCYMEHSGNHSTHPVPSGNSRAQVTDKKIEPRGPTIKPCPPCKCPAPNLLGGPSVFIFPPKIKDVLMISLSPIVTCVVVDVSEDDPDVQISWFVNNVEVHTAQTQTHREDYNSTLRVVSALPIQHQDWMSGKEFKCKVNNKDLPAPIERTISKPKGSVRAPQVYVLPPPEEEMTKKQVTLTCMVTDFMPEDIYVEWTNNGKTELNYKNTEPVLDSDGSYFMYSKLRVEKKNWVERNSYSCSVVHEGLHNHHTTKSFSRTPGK
# T2: S287A
# T2 construct: % monomer 90.34; also called MICA*008.mIgG2a S287A
# T2 chain: T1 chain with A73R, S86A
# T3: T238A
# T3 construct: % monomer 96; also called MICA*008.mIgG2a T238A
# T3 chain: T1 chain with T37A, A73R
# T4: S245A
# T4 construct: % monomer 93.96; also called MICA*008.mIgG2a S245A
# T4 chain: T1 chain with S44A, A73R
# T5: S291A
# T5 construct: % monomer 83.21; also called MICA*008.mIgG2a S291A
# T5 chain: T1 chain with A73R, S90A
# T6: E277A
# T6 construct: % monomer 81.58; also called MICA*008.mIgG2a E277A
# T6 chain: T1 chain with A73R, E76A
# T7: G288A
# T7 construct: % monomer 95.3; also called MICA*008.mIgG2a G288A
# T7 chain: T1 chain with A73R, G87A
# B1: 6F8.7 Fab (Fab, V domains shown)
# VH: DVQLQGSGPGLVKPSQSLSLTCSVTGYSITNDYYWNWIRQFPGNKLEWMGFISFGGSNNYNPSLKNRISITRDTSKNQFFLKLSSVTTEDTATYYCARYDGRGAWFAYWAQGTLVTVSA
# VL: DIQMTQSPASLSASVGETVTITCRASGNIHNYLAWYQQKQGKSPQLLVYDAITLADGVPSRFSGSGSGTQYSLKINSLQPEDFGNYYCQHFWSFPLTFGAGTKVEIK
# B2: 7D4.6 Fab (Fab, V domains shown)
# VH: DVQLQESGPGLVKPSQSLSLTCTVTGYSITSDYAWNWIRQFPRNKLEWMGYINYSGTTNYNPSLKSRISITRDTSKNQFFLQLISVTTEDTATYYCSYYRYDGAWFPYWGQGTLVTVSA
# VL: B1 VL with D50N, T53M, G64A, N85S
# B3: 2E5.2.3 Fab (Fab, V domains shown)
# VH: QGQMQQSGAELVKPGASVKLSCKTSGFTFSDNYISWLKQKPGQSLEWIAWIYAGTGGTSYNQKFTAKAQLTVDTSSSTAYMQFSSLTTEDSAIYYCARHDYYGTSGAWFAYWGQGTLVTVSA
# VL: DVLMTQTPLSLPVSLGDQASLSCRSSQNIVHINGNTYLEWYLQKPGQSPKLLIYKVSNRFSGVPDRFSGSGSGTDFTLKISRVEAEDLGVYYCFQGSHVPWTFGGGTKVEIK
# B4: 1D5 Fab (Fab, V domains shown)
# VH: EIQLQQSGPELVKPGASVKVSCKASGYAFTSQNIYWVKQSHGKSLEWIGYIEPYNVVPMYNPKFKGKATLTVDKSSSSAYIHLNSLTSEDSAIYYCARSGSSNFDYWGQGTTLTVSS
# VL: EIILTQSPTTMAASPGEKITITCSASSSISSHYLHWYQQKSGFSPKLLIYRTSNLASGVPARFSGSGSGTSYSLTIGTMEAEDVATYYCQQGSSLPLTFGAGTKVEIK
# notes: Expressed in E. coli as chimera of murine variable and human constant domains; not shown: human IgG1 CH1 constant domain; human kappa CL constant domain
# Target: T1, R274A
# Test: SPR, Fab over captured MICA*008.mIgG2a Ala variant; KD relative to wild type
row,fold-decrease in affinity,Binder
1,1,B1
2,0.9,B2
3,1.1,B3

# Target: T2, S287A
# Test: as above
row,fold-decrease in affinity,Binder
1,1.1,B1
2,1.3,B2
3,4.9,B4
4,1,B3

# Target: T3, T238A
# Test: as above
row,fold-decrease in affinity,Binder
1,0.1,B1
2,0.1,B2
3,0.4,B4
4,1.3,B3

# Target: T4, S245A
# Test: as above
row,fold-decrease in affinity,Binder
1,1.2,B1
2,1.6,B2
3,1,B3

# Target: T5, S291A
# Test: as above
row,fold-decrease in affinity,Binder
1,2.7,B1
2,2.7,B2
3,1.1,B4
4,1.1,B3

# Target: T6, E277A
# Test: as above
row,fold-decrease in affinity,Binder
1,2.7,B1
2,1.3,B2
3,1.9,B4
4,1.1,B3

# Target: T7, G288A
# Test: as above
row,fold-decrease in affinity,Binder
1,1,B1
2,0.8,B2
3,1,B4
4,0.6,B3
